Where no end group is shown, it is not given here.

In assay [1] the target is T1, 15N-labeled PHear (NECAP 1 PHear domain, GST cleaved) (mouse, UniProt Q9CR95 1-133).
T1 chain: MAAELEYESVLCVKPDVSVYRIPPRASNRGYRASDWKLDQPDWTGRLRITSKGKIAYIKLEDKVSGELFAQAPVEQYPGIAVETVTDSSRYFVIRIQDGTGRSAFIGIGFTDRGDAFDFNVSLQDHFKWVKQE
In words: NMR; I106 peak.

The target in assay [2] is T1, 15N-labeled PHear (NECAP 1 PHear …). In words: NMR; L47 peak.
Assay [3] has as its target T2, 15N-labeled PHear (NECAP 1 PHear domain, GST cleaved) (mouse, UniProt Q9CR95 1-133).
T2 construct: NECAP 1, PHear domain, residues 1-133; Uniformly 15N-labelled for NMR; source: E. coli BL21, purified (GST fusion cleaved with thrombin, S75 gel filtration)
T2 sequence (looked up): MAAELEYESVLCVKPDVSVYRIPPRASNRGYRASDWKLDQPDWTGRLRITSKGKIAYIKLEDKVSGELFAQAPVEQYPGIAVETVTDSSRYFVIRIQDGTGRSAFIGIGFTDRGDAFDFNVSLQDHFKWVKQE
In words: NMR titration; 1H-15N HSQC of 15N-labeled PHear (0.15 mM) titrated with unlabeled peptide, 30°C, 25 mM sodium phosphate pH 7.2, 75 mM NaCl, 0.5 mM EDTA, 3 mM DTT. The settings on record: both partners purified.

B1: β2-linker peptide (Ac-SQGDLLGDLLNLDLPPVN) (peptide)
peptide: Ac-SQGDLLGDLLNLDLPPVN
notes: peptide from the linker of β2-adaptin; the printed peptide has no G there; also called unlabeled β2-linker; source: synthetic peptide (Sheldon Biotechnology Center, McGill University), HPLC purified
Turning to B1, the values for the dissociation constant Kd in assay [1], in assay [2] and in assay [3] were 420 µM, 540 µM and 480 µM, respectively.

B2: AP180 FxDxF-motif peptide (Ac-VDIFGDAFAAS) (peptide)
peptide: Ac-VDIFGDAFAAS
notes: peptide derived from AP180; also called AP-180 peptide; FxDxF-motif peptide derived from AP180; source: synthetic peptide (Sheldon Biotechnology Center, McGill University), HPLC purified
For B2, the binding result in assay [3] is “binds”.

(Values after PMC3794858, “NECAP 1 Regulates AP-2 Interactions to Control Vesicle Size, Number, and Cargo During Clathrin-Mediated Endocytosis” (PLoS Biology, 2013).)
